From publication PMC3680380, “Functional Characterization of the Cardiac Ryanodine Receptor Pore-Forming Region” (PLoS ONE, 2013)

Molecular target: the molecule itself
Test: SEC; analytical gel filtration, HiLoad 16/60 Superdex 200, 50 mM Tris, 150 mM KCl, pH 8.0, 0.1% LDAO; calibrated with soluble protein standards (B-amylase, carbonic anhydrase, cytochrome c); elution at 72 ml against 71 ml expected for a tetramer

B1: human cardiac ryanodine receptor (RyR2) pore-forming region (domain or fragment, UniProt Q92736 4758-4967, looked up)
chain: SSVTHNGKQLVLTVGLLAVVVYLYTVVAFNFFRKFYNKSEDGDTPDMKCDDMLTCYMFHMYVGVRAGGGIGDEIEDPAGDEYEIYRIIFDITFFFFVIVILLAIIQGLIIDAFGELRDQQEQVKEDMETKCFICGIGNDYFDTVPHGFETHTLQEHNLANYLFFLMYLINKDETEHTGQESYVWKMYQERCWEFFPAGDCFRKQYEDQLN
notes: Cardiac ryanodine receptor RyR2, human, pore-forming region, residues 4758-4967 (printed as 209 residues), up to the natural C-terminus; 27.3 kDa with the tag; also called hRyR2-PFR; RyR2-PFR; source: E. coli Rosetta (DE3) pLysS, pET19b; membranes solubilised in 1% LDAO, purified (Ni-NTA, Superdex 200 gel filtration in 0.1% LDAO); not shown: deca-His, N-terminal, kept
stoichiometry N: 4
